Experiments:
Assay in all cases: pull-down binding Z-score (relative to library population); higher = stronger binding
Settings in all cases: RNA library: Library-2
[1] = test system: TO-N3-2 (biotin conjugate)
Outline: (§1)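 An RNA library (1 μg) carrying a Cy5 or Cy3 end label was heat-folded in phosphate/NaCl/KCl buffer, then incubated for 60 min at 25 °C with streptavidin beads loaded with 100 pmol of biotin-conjugated small molecule. The beads were washed three times, and bound RNA was released in hot SDS and hybridised to a DNA barcode microarray for 20 h at 55.5 °C. Each binding score was derived by subtracting the signal from beads without compound, averaging the barcoded replicate probes after removing the highest and lowest, and expressing the result as a Z-score relative to the library mean and standard deviation.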

[2] = test system: TO-3-N3-2 (biotin conjugate)
Outline: as §1

TO-N3 (biotin conjugate) = test system: TO-N3 (biotin conjugate)
Outline: as §1

[3] = test system: TO-3-N3 (biotin conjugate)
Outline: as §1

Sequence | pull-down binding Z-score [1] | pull-down binding Z-score [2] | pull-down binding Z-score (TO-N3 (biotin conjugate)) | pull-down binding Z-score [3]
CCCGGAAAUAGCAGGAAGACCCAAAGUAAGAGAUCAAGCUGGG [IAV_invivo_HA_4_Motif_10+IAV_invivo_HA_4_Motif_10] | 0.433 | 0.505 | -0.157 | -0.309
CCCUAAGACUAAAAAUGUUACAAAAGAAAAUGACUCUAAAGAGGGUUUUUUCACUUACAUUUGUGGG [DMSMaPseq_invitro_SARS-CoV-2_Motif_371] | -0.589 | -0.271 | -1.03 | -0.845
CCCUGAACACAAUGACCAAAGAUGCUGAGAGAGGG [IAV_invivo_PB1_2_Motif_12+IAV_invivo_PB1_2_Motif_12] | 0.884 | 0.103 | 0.143 | -0.218
CCGAAAUUAUGUCUUUACUGGUUAUCGUGUAACUAAAAACAGUAAAGUACAAAUAGG | -0.428 | -0.0158 | -0.399 | -0.303
CCGAAUACCAUAAUGAAUCUGGCUUGAAAACCAUUCUUCGUAAGGGUGGUCGCACUAUUGCCUUUGG [DMSMaPseq_invitro_SARS-CoV-2_Multi_5_ComplexLevel_1] | 0.178 | -0.063 | -0.257 | -0.576
CCGGUAAGGACGAUACUUACCUG [U1snRNP5ss-23] | -0.181 | -0.205 | 0.0948 | 0.363
CCUAAACGAACAUGAAAUUUCUUGUUUUCUUAGG | -0.729 | -0.593 | -1.08 | -0.979
CCUAAAGUGAAGUAUUUAUACUUUAUUAAAGG [DMSMaPseq_invitro_SARS-CoV-2_Motif_232] | -0.916 | -0.181 | 0.411 | 0.463
CCUAAUGGAUGG [IAV_invivo_NA_6_Motif_15+IAV_invivo_NA_6_Motif_15] | -0.501 | -0.746 | -0.777 | -0.555
CCUACUAAAAAGG | -0.0122 | 0.2 | 0.766 | 0.907
CCUACUGAUGG [IAV_invivo_PA_3_Motif_12+IAV_invivo_PA_3_Motif_12] | -0.632 | -0.207 | -0.319 | 0.0894
CCUAUACUGUUACUAGAUCAGGCAUUAGUGUCUGAUGUUGGUGAUAGUGCGG [DMSMaPseq_invitro_SARS-CoV-2_Motif_147] | -0.184 | 0.0824 | 0.0062 | 0.0141
CCUAUCAAUGG [IAV_invivo_PB2_1_Motif_26+IAV_invivo_PB2_1_Motif_26] | -0.376 | -0.212 | 0.11 | 0.191
CCUCGUACAAAAUUUUCAAGAUCGAAAAGGGG [IAV_invivo_NA_6_Motif_10+IAV_invivo_NA_6_Motif_10] | -0.605 | 0.159 | -0.362 | -0.278
CCUCUAAAAGCCCCAAAAGAAAUUAUCUUCUUAGAGGGAGAAACACUUCCCACAGAAGUGUUAACAGAGG | 0.314 | -0.139 | -0.162 | -0.556
CCUCUGACUAAGGGG [IAV_invivo_M1_M2_7_Motif_4+IAV_invivo_M1_M2_7_Motif_4] | -1.25 | -0.414 | -0.504 | -0.159
CCUCUUGAGUGCAUUAAAGACCUUCUAGCACGUGCUGGUAAAGCUUCAUGCACUUUGUCCGAACAACUGGACUUUAUUGACACUAAGAGG [SHAPE_invitro_SARS-CoV-2_Multi_2_ComplexLevel_1] | 0.844 | -0.0693 | 0.899 | 0.756
CCUGAAUCUUGG [IAV_invivo_PB1_2_Motif_21+IAV_invivo_PB1_2_Motif_21] | -0.502 | -0.491 | -0.925 | -0.834
CCUGACUUAAAUGGUGAUGUGGUGGCUAUUGAUUAUAAACACUACACACCCUCUUUUAAGAAAGG | -0.275 | 0.00798 | -0.206 | -0.161
CCUGCACCACGCACAUUGCUAACUAAGG [SHAPE_invitro_SARS-CoV-2_Motif_318] | 0.0122 | -0.173 | -0.204 | -0.429
CCUGCCUGCCUGCCUG [r(CCUG)4] | 0.703 | 0.0557 | 0.872 | 0.588
CCUGGUCAUGCAGAUCUCAGUGCCAAGGAGGCACAGGAUGUAAUCAUGGAAGUUGUUUUCCCUAACGAAGUGGGAGCCAGG | 0.44 | -0.23 | -0.414 | -0.749
CCUGUGAACAGAUUGCUGACUCCCAGCAUCGGUCUCAUAGG [IAV_invivo_M1_M2_7_Motif_10+IAV_invivo_M1_M2_7_Motif_10] | -0.458 | -0.605 | -0.943 | -0.767
CCUUACCCAGAUCCAUCAAGAAUCCUAGGGGCCGG | 0.308 | 0.14 | 0.876 | 0.842
CCUUAUAAUUCACAGAAUGCUGUAGCCUCAAAGAUUUUGGGACUACCAACUCAAACUGUUGAUUCAUCACAGG [DMSMaPseq_invitro_SARS-CoV-2_Motif_319] | 0.0157 | -0.324 | -0.341 | -0.541

— the supplement of paper PMC11865577
